The target in the data set is CAF-1 (Cac1-Cac2-Cac3) (Saccharomyces cerevisiae? (yeast), UniProt Q12495;Q04199;P13712 1-606;1-468;1-422). Description: EMSA; EMSA: 25 mM Tris pH 7.5, 150 mM NaCl, 1 mM EDTA, 0.02% Tween-20, 1 mM TCEP, 50 nM DNA, 6% PAGE; SEC: 50 mM HEPES pH 7.5, 200 mM NaCl, 0.01% IGEPAL, 1 mM TCEP, 10 mM MgCl2, PCNA loading at 30 C with 3 mM ATP, CAF-1 at room temperature. The following applies: protein: recombinant, chain copies: 2;2;2, blunt.

B1: 33 bp DNA (dsDNA)
DNA 1: GCTGTCTACGAGCAATTGAGCGGCCTCGGCACC
DNA 2: GGTGCCGAGGCCGCTCAATTGCTCGTAGACAGC
Turning to B1, the Kd (label: 5' Alexa Fluor 647 on forward strand) was found to be 330 nM.

B2: 43 bp DNA (dsDNA)
DNA 1: CTAGAGCTGTCTACGAGCAATTGAGCGGCCTCGGCACCGGGAT
DNA 2: ATCCCGGTGCCGAGGCCGCTCAATTGCTCGTAGACAGCTCTAG
Consider B2, for which the Kd turned out to be 230 nM.

B3: 53 bp DNA (dsDNA)
DNA 1: CGGTGCTAGAGCTGTCTACGAGCAATTGAGCGGCCTCGGCACCGGGATTCTGA
DNA 2: TCAGAATCCCGGTGCCGAGGCCGCTCAATTGCTCGTAGACAGCTCTAGCACCG
On to B3, for which the Kd is 180 nM.
